According to patent US20250215467A1, “L-THREONINE TRANSALDOLASES AND USES THEREOF” (University of Delaware, priority 2022, published 2025):

What was measured:
[1] = TTA-ADH coupled assay, screen of purified TTAs on 2-nitro-benzaldehyde; format: biochemical; conditions: substrate 3, TTA-ADH coupled assay
Description: High-throughput screening of purified TTAs was performed with a TTA-ADH coupled assay using purified TTA and commercially available alcohol dehydrogenase from S. cerevisiae purchased from MilliporeSigma. Aldehyde stocks were prepared in 50-100 mM solutions in DMSO or acetonitrile. Reaction mixtures were prepared in a 96-well plate with 100 μL of 100 mM phosphate buffer pH 7.5, 0.5 mM NADH, 0.4 mM PLP, 15 mM MgCl2, and 100 mM L-Thr with the addition of 0.25 mM to 1 mM aldehyde depending on the background absorbance at 340 nm (Table 4), 10 U ScADH, and 0.25 μM purified TTA unless otherwise specified. Reactions were initiated with the addition of enzyme. […] The following controls were included for every assay: reaction mixture without aldehyde, without TTA, and without enzyme (TTA or ADH). Rates were calculated by identifying the linear region at the beginning of the kinetic run and converting the depletion in absorbance to the depletion of mM NADH using an NADH standard curve.
Once purified, we identified the putative TTAs with high activity and further characterized them for their L-Thr affinity and substrate scope. We first screened each purified enzyme using the TTA-ADH coupled assay with 2-nitro-benzaldehyde, 3, the best performing substrate from the screen of ObiH that was not a substrate of the ScADH. […] With this evidence as well as well-aligned, predicted AlphaFold structures, we assumed the impact of the SUMO tag would be minimal for all TTAs screened and moved forward with additional enzyme characterization.

wild-type E. coli MG1655 = experiment: β-OH-nsAA biosynthesis during aerobic fermentation in wild-type E. coli MG1655; format: cell-based, Escherichia coli; conditions: SUMO-tagged construct, 1 mM 3, 20 h
Description: Metabolites of interest were quantified via high-performance liquid chromatography (HPLC) using an Agilent 1260 Infinity model equipped with a Zorbax Eclipse Plus-C18 column. To quantify aldehyde and β-OH-nsAAs, an initial mobile phase of solvent A/B=95/5 was used (solvent A, water+0.1% TFA; solvent B, acetonitrile+0.1% TFA) and maintained for 5 min. A gradient elution was performed (A/B) as follows: gradient from 95/5 to 50/50 for 5-12 min, gradient from 50/50 to 0/100 for 12-13 min, and gradient from 0/100 to 95/5 for 13-14 min. A flow rate of 1 mL min-1 was maintained, and absorption was monitored at 210, 250 and 280 nm.
For screening TTA activity in aerobically growing cells, we inoculated strains transformed with plasmids expressing TTAs into 300 μL volumes of MOPS EZ Rich media in a 96-deep-well plate with appropriate antibiotic added to maintain plasmids (50 μg/mL kanamycin (Kan)). Cultures were incubated at 37° C. with shaking at 1000 RPM and an orbital radius of 1.25 mm until an OD600 of 0.5-0.8 was reached. OD600 was measured using a SPECTRAMAX® i3× plate reader. At this point, the TTAs were induced with addition of 0.2 nM aTc for TTA expression. Then, 2 h following induction of the TTAs, 1 mM aldehyde was added to the culture. Cultures were then incubated over 20 h at 30° C. with metabolite concentration measured via supernatant sampling and submission to HPLC. […]

B1: PbTTA: L-threonine transaldolase, SEQ ID NO: 16, Parachlamydiales bacterium, MBN2478762.1 (protein, listed as Parachlamydiales bacterium)
chain: METSLKDFETILHLINKEEIDSNDTIHMTANENIMSKLSKHYLKSTLSYRYHVGMFDDQKNLTVSRSCLIKNSLMLRCLSPIFLLEQQAREYVKKMFFAEYADFRPLSGMHTVFCILSTLTKPNDRVYVFTTESVGHAATVSLLKSLGRKVSFIPFCEKKLDIDLEKLSKQILIEKPNAILFDFGTPFYPLPIREIREIVGNDVKMIYDASHVLGLIAGGQFQNPLLEGCDVLIGNTHKTFPGPQKGMILYKNKSLGKEIATEIFKSAISAQHTHHAIALYVTIIEMYIHGKEYANQIIKNNHALSQALINEGFKIFKRKNQFSLSHMIAITGDFPIDHHVACADLHNSNISTNSRILYDFPAVRIGVQEVTRKGMKEKDMVQLAKFFKEIILDRKNISSKIKEFNNKFNSIEYSLDEIYEKLF
activity on 2-nitro-benzaldehyde relative to ObiH [1]: comparable to or better than ObiH
β-OH-nsAA titer (wild-type E. coli MG1655; MG1655, 100 mM L-Thr supplemented): 0.47 ± 0.04 mM
β-OH-nsAA titer (wild-type E. coli MG1655; MG1655, physiological levels of L-Thr): 0.09 ± 0.01 mM
